Common to all, as to experiment: EMSA
Series [1] has as its target T1, DNMT1 (BAH1-BAH2-MTase fragment) (human, UniProt P26358 728-1600).
Series [2] concerns the target T1, DNMT1 (BAH1-BAH2-MTase fragment). This is another data set of the same source.
Series [3] has the same target. The source holds these as a separate data set.
A further series has as its target DNMT3A;DNMT3L (human;human, UniProt Q9Y6K1;Q9UJW3 628-912;178-386, |).
In a further series the target is DNMT3B;DNMT3L (human;human, UniProt Q9UBC3;Q9UJW3 562-853;178-386, |).
The target in series [4] is T1, DNMT1 (BAH1-BAH2-MTase fragment). This is another data set of the same source.
Series [5] shares this target. The source holds these as a separate data set.

Like-named read-outs stand apart in the source and are kept apart here.

By Kd is commonly meant the free concentration of one partner at which half of the binding sites on the other are occupied at equilibrium, for simple one-to-one binding. High values mean a looser complex, low ones a tighter complex.

T1 sequence (P26358 728-1600): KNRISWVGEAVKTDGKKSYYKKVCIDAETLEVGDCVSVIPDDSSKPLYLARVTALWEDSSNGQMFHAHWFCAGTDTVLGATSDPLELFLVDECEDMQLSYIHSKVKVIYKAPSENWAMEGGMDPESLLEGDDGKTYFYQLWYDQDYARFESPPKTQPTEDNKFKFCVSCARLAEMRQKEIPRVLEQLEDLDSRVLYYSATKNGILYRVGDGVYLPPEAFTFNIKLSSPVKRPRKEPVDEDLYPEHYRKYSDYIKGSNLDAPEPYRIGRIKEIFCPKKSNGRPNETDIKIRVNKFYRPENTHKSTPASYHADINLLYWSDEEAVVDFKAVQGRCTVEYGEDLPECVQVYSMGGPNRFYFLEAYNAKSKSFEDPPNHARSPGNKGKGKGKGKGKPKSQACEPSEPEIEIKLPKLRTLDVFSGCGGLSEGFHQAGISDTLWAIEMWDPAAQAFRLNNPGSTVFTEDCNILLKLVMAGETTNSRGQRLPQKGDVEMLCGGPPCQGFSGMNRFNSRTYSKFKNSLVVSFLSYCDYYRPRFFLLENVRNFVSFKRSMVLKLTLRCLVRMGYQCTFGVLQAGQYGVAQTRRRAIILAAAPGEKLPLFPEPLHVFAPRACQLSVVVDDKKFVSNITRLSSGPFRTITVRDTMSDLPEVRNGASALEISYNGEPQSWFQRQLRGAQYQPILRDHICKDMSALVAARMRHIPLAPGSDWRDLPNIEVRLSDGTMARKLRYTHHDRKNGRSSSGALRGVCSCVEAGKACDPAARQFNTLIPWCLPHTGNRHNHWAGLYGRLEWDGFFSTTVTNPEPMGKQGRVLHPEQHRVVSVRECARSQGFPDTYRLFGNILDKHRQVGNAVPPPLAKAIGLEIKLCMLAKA
DNMT3A;DNMT3L, sequence (Q9Y6K1 628-912, chain 1 of 2): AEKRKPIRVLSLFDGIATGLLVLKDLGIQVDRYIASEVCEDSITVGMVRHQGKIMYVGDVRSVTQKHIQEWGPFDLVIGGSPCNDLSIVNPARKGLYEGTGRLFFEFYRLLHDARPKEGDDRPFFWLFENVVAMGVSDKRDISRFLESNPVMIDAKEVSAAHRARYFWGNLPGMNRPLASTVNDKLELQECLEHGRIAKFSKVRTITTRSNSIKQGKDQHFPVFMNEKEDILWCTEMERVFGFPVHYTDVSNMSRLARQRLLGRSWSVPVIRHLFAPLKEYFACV
DNMT3A;DNMT3L, sequence (Q9UJW3 178-386, chain 2 of 2): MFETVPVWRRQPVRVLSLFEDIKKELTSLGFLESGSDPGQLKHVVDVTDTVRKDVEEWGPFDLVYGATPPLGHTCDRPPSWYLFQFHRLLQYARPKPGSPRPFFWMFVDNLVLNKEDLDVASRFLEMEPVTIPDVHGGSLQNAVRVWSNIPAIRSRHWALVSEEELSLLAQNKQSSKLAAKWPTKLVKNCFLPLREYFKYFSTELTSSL
DNMT3B;DNMT3L, sequence (Q9UJW3 178-386, chain 2 of 2, other chains not shown): as the sequence (Q9UJW3 178-386, chain 2 of 2) above

B1: Modified ssDNA #5 (ssDNA)
DNA: CGTCAGATGTGCGAGTGACATCTCAACGG
Consider B1, for which the binding result in series [1] was “no binding”.

B2: Modified ssDNA #7 (ssDNA)
DNA: CAGATGTGCGAGTGACATCTC
B2: in series [2], the binding result was “no binding”.

B3: Apt. #10 (ssDNA)
DNA: CCCATGCGTAGGGTCTGATGCCTATGCGTG
As to B3, in series [1], the binding result is “binds”.

B4: Steml (ssDNA)
DNA: ATAGAAGTGGGGGTGAGTCCACTTCTATG
B4: in series [3], the binding result was “binds”.

B5: Apt. #9 (ssDNA)
DNA: AGAAGTGGGGGTGAGTCCACTTCTG
With B5, the Kd in series [1] stood at 770 ± 110 nM. For the same molecule, the binding result with DNMT3A;DNMT3L and with DNMT3B;DNMT3L was “no binding” each time.

B6: hemiDNA 36-mer (dsDNA)
DNA 1: GACGACGACGACGACGACGACGACGACGACGACGAC
DNA 2: GTCGTCGTCGTCGTCGTCGTCGTCGTCGTCGTCGTC
modifications: 5-methylcytosine at every C of strand 2
In turn, B6 had a binding signal in series [4] of around 4 fold weaker than Apt. #9.

B7: Bulge2 (ssDNA)
DNA: AGATCTGGGGGTGAGTCCACTTCTG
Turning to B7, the binding result in series [3] is recorded as “binds”.

B8: Apt. #8 (ssDNA)
DNA: CGTAGATGTGCGAGTGACATCTACGG
In the case of B8, in series [1], the binding result is reported as “binds”.

B9: R2 RNA (ssRNA)
RNA: CCCGGGACGCGGGUCCGGGACAG
As for B9, the binding signal in series [5] was ~4 fold less binding than Apt. #9.

B10: non-binding ssDNA #12 (ssDNA)
DNA: TGCGAGTGACATCTCAACGG
As for B10, the binding result in series [1] is listed as “no binding”.

B11: Apt. #11 (ssDNA)
DNA: AGATGTGCGAGTGACATCTCAACGGCCTAT
On to B11, for which the binding result in series [1] is listed as “binds”.

B12: Modified ssDNA #6 (ssDNA)
DNA: CGTAGATGTGCTGACATCTACGG
Regarding B12, the binding result in series [1] is given as “no binding”.

Values taken from publication PMC7145629.
